The target in one test is Human CD33 (human, UniProt P20138 18-259). The test can be described thus: BLI, affinity to target. Background: BLI is a label-free optical method that tracks binding on a fibre tip over time.
A further test has as its target T1, Human CLL1 (human, UniProt Q5QGZ9 65-265, limits assumed).
T1 construct: also called C-type lectin-like molecule 1
T1 sequence (looked up): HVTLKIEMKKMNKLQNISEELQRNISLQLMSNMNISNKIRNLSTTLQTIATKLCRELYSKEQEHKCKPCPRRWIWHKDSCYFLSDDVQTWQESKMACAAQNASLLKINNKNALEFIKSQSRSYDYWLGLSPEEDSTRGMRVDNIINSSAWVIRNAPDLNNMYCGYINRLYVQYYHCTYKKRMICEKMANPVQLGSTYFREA
The test can be described thus: BLI, affinity to target.

Chain of Human CD33 (P20138 18-259 limits assumed): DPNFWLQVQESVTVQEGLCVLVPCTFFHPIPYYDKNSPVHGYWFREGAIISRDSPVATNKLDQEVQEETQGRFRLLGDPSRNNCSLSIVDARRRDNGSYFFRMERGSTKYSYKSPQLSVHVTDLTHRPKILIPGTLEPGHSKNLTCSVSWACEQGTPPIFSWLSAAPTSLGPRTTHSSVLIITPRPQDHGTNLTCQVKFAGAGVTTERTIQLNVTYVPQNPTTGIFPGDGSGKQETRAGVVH

B1: Anti-CD33-CLL1 bispecific antibody (bispecific antibody, human IgG1, kappa)
heavy 1: not shown
light 1: not shown
heavy 2: not shown
light 2: DIQMTQSPSSLSASVGDRVTITCRASESVDNYGISFMNWFQQKPGKAPKLLIYAASNQGSGVPSRFSGSGSGTDFTLTISSLQPDDFATYYCQQSKEVPWTFGQGTKVEIKRTVAAPSVFIFPPSDEQLKSGTASVVCLLNNFYPREAKVQWKVDNALQSGNSQESVTEQDSKDSTYSLSSTLTLSKADYEKHKVYACEVTHQGLSSPVTKSFNRGEC
notes: Copies '1' follow from this arm exchange; also called anti-CD33/CLL1 antibody
Usually Kd stands for the free concentration of one partner at which half of the binding sites on the other are occupied at equilibrium, for simple one-to-one binding. A high value points to a looser complex. For B1, the dissociation constant (Kd) in the test with Human CD33 was 5.5 nM; with Human CLL1, 26 nM.
